Molecular target: glucagon receptor (GCGR)
Assay: cell-based or functional assay

EC50, cell-based cyclic AMP (cAMP) activity assay: 1.04 nM
Substance: dasiglucagon (Zealand Pharma) (peptide)

From patent US20240116999A1, “CONFORMATIONALLY CONSTRAINED GLUCAGON ANALOGUES AND THEIR USE IN GLUCAGON-SINGLE CHAIN INSULIN FUSION PROTEINS” (THE TRUSTEES OF INDIANA UNIVERSITY, priority 2021, published 2024)
